In PMC11005391, “Tetramerization is essential for the enzymatic function of the Pseudomonas aeruginosa virulence factor UDP-glucose pyrophosphorylase” (mBio, 2024):
Numbering of substitutions follows the chain as printed.

B1: PaUGP R57A (enzyme)
chain: MIKKCLFPAAGYGTRFLPATKAMPKEMLPVVNKPLIQYAVEEALEAGLSEIGIVTGAGKRSLEDHFDISYELEHQIRNTDKEKYLVGIRRLIDECTFAYTRQVEMKGLGHAILTGRPLIGDEPFAVVLADDLCLNLEGDSVLKQMVKLYNQFRCSIVAIQEVPPEETNKYGVIAGEMIRDDIFRVNTMVEKPKPEEAPSNLAIIGRYILTPDIFDLIEQTEPGKGGEIQITDALMKQAQDGCVLAYKFKGKRFDCGSAEGYIEATNFCYENLYKTGKAH
notes: UDP-glucose pyrophosphorylase of Pseudomonas aeruginosa (galU), residues 1-279, point mutant of Strep-PaUGP; Same construct as m1; source: E. coli BL21(DE3), purified (Strep-Tactin Sepharose); not shown: Strep-tagII, N-terminal, kept
B2: PaUGP R57K (enzyme)
chain: B1 chain with A57K
notes: as for B1
B3: PaUGP Y70F (enzyme)
chain: B1 chain with A57R, Y70F
notes: as for B1
B4: PaUGP H74A (enzyme)
chain: B1 chain with A57R, H74A
notes: as for B1
B5: PaUGP R101A (enzyme)
chain: B1 chain with A57R, R101A
notes: as for B1
B6: PaUGP R101K (enzyme)
chain: B1 chain with A57R, R101K
notes: as for B1
B7: PaUGP N266D (enzyme)
chain: B1 chain with A57R, N266D
notes: as for B1
B8: PaUGP K21A (enzyme)
chain: B1 chain with K21A, A57R
notes: UDP-glucose pyrophosphorylase of Pseudomonas aeruginosa (galU), residues 1-279, point mutant of Strep-PaUGP; source: E. coli BL21(DE3), purified (Strep-Tactin Sepharose); not shown: Strep-tagII, N-terminal, kept
B9: PaUGP K21Q (enzyme)
chain: B1 chain with K21Q, A57R
notes: as for B1
B10: Pseudomonas aeruginosa uridine diphosphate-glucose pyrophosphorylase, wild type (Strep-PaUGP) (enzyme)
chain: B1 chain with A57R
notes: UDP-glucose pyrophosphorylase (UGP, EC 2.7.7.9) of Pseudomonas aeruginosa, galU gene amplified from plasmid PaCD00006903; residues 1-279; no cleavage is reported; Crystallised with UDP-Glc and Mg2+; also called PaUGP WT; Strep-tagged PaUGP; source: E. coli BL21(DE3), purified (Strep-Tactin Sepharose); not shown: Strep-tagII, N-terminal, kept

Target: the molecule itself
Assay: cell-based or functional assay

| Protein | In vitro activity (% of WT), EnzChek pyrophosphate assay, forward reaction |
| --- | --- |
| B1 | 1.28 % of WT |
| B2 | 2.36 % of WT |
| B3 | 47.2 % of WT |
| B4 | 60.3 % of WT |
| B5 | 0.83 % of WT |
| B6 | 1.31 % of WT |
| B7 | 105 % of WT |
| B8 | 5 % of WT |
| B9 | 1.26 % of WT |

target: Q9I291; assay: SEC; as a1, but the more diluted sample of mutants with dilution-dependent behaviour (footnote b of Table 1; broken lines in Fig. 5 and Fig. S9)

| Protein | N of the monomer peak (minor peak) | N of the monomer peak (main peak) |
| --- | --- | --- |
| B1 | 1.2 | – |
| B2 | 1.2 | – |
| B5 | 1.2 | – |
| B6 | 1.2 | – |
| B8 | – | 1.2 |
| B9 | – | 1.4 |

Target: the molecule itself
Assay: native gel or EMSA; blue native PAGE, uniform 12% polyacrylamide gel with 3.5% stacking gel, 13.5 ug of each protein loaded, Coomassie-stained bands

| Protein | stoichiometry N |
| --- | --- |
| B1 | 4 |
| B2 | 4 |
| B3 | 4 |
| B4 | 4 |
| B7 | 4 |

Target: the molecule itself
Assay: SEC; as a1, but the more diluted sample of mutants with dilution-dependent behaviour (footnote b of Table 1; broken lines in Fig. 5 and Fig. S9)

| Protein | stoichiometry N | N of a minor peak |
| --- | --- | --- |
| B1 | 2.4 | – |
| B2 | 3.2 | – |
| B5 | 1.8 | 3.6 |
| B6 | 2.1 | – |
| B8 | – | 2.3 |
| B9 | – | 2.7 |

Target: the molecule itself
Assay: SEC; Superdex 200 10/300 GL, 50 mM Tris-HCl pH 8.0, 300 mM NaCl, 10 mM MgCl2; oligomeric state calculated from elution volumes of proteins of known size; addition of UTP, Glc-1-P or UDP-Glc did not affect the oligomerization of the WT

| Protein | stoichiometry N |
| --- | --- |
| B10 | 4 |

target: Q9I291; assay: as above

| Protein | N of the monomer peak (minor peak) |
| --- | --- |
| B3 | 1.3 |
| B4 | 1.3 |
| B7 | 1.2 |

Target: the molecule itself
Assay: as above
Remark: another data set of the same source

| Protein | stoichiometry N |
| --- | --- |
| B3 | 3.7 |
| B4 | 3.7 |
| B7 | 4.2 |
